# According to paper PMC7595112, “Ketohexokinase-A acts as a nuclear protein kinase that mediates fructose-induced metastasis in breast cancer” (Nature Communications, 2020):
# T1: FLAG-LRRC59 purified from HEK293T cells (human, UniProt Q96AG4 1-307)
# T1 construct: leucine-rich repeat-containing protein 59, human cDNA NM_018509 cloned by RT-PCR into pcDNA-FLAG
# T1 sequence (looked up): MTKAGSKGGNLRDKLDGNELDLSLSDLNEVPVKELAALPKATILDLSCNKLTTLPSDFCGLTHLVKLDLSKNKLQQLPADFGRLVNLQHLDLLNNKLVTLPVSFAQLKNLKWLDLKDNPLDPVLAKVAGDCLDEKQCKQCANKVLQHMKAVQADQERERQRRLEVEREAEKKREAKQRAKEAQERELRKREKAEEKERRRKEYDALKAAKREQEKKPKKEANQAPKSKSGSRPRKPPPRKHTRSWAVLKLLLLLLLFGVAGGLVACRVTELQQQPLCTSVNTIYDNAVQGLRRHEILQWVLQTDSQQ
# How the values were obtained:
# SLUG (SNAIL2) = SLUG (SNAIL2) (UniProt O43623); experiment: co-immunoprecipitation, immunoblot; details: reference: wild-type YWHAH; sites S25
# [1] = molecular target: T1, FLAG-LRRC59 purified from HEK293T cells; experiment: pull-down; purified His-KHK-A and FLAG-LRRC59 incubated 1 h at 4 °C with 1 mM fructose in 25 mM HEPES pH 7.5, 150 mM KCl, 12.5 mM MgCl2, 0.5 mM DTT, 0.1% NP-40, 10% glycerol; His-KHK-A pulled down with nickel-NTA, anti-Flag blot; details: both partners purified
binding against the reference (SLUG (SNAIL2)),binding result [1],Molecule
lost,,YWHAH (14-3-3η) (from UniProt Q04917) YWHAH S25A
,binds,"His(6)-KHK-A purified from HEK293T cells (enzyme, human, ketohexokinase isoform A (KHK-A), human cDNA NM_000221 cloned by RT-PCR into pcDNA-His(6); also called His-KHK-A; purified KHK-A; source: HEK293T, purified (nickel-NTA beads, eluted with 250 mM imidazole)) MEEKQILCVGLVVLDVISLVDKYPKEDSEIRCLSQRWQRGGNASNSCTVLSLLGAPCAFMGSMAPGHVADFVLDDLRRYSVDLRYTVFQTTGSVPIATVIINEASGSRTILYYDRSLPDVSATDFEKVDLTQFKWIHIEGRNASEQVKMLQRIDAHNTRQPPEQKIRVSVEVEKPREELFQLFGYGDVVFVSKDVAKHLGFQSAEEALRGLYGRVRKGAVLVCAWAEEGADALGPDGKLLHSDAFPPPRVVDTLGAGDTFNASVIFSLSQGRSVQEALRFGCQVAGKKCGLQGFDGIV"
